Results reported in patent publication US20080242601A1 (INSTITUTE PASTEUR, published 2008).
Like-named read-outs stand apart in the source and are kept apart here. * marks the point of attachment. BODIPYFLEthylmaleimide = Cc1cc(C)n2c1C=C1C=CC(CCC(=O)NCCN3C(=O)CC(*)C3=O)=[N+]1[B-]2(F)F

T1: NEMO (NF-kB essential modulator), murine (murine, UniProt O88522 1-412)
T1 chain: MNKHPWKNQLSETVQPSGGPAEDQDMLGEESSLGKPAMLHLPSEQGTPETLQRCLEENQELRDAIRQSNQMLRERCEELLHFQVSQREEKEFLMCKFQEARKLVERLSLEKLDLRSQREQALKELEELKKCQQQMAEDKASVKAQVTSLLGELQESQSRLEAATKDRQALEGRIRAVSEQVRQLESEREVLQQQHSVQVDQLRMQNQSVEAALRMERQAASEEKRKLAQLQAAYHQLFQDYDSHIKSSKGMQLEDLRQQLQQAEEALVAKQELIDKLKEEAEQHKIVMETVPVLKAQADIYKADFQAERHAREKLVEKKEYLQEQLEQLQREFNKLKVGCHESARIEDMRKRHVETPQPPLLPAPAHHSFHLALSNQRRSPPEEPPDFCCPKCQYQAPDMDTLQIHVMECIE

B1: BODIPY-Ant-LZ (WT) (peptide)
peptide: Ac-C(BODIPYFLEthylmaleimide)RQIKIWFQNRRMKWKKLKAQADIYKADFQAERHAREKLVEKKEYLQEQLEQLQREFNKL-NH2
notes: Synthetic fusion peptide; also called cell permeable LZ
B2: BODIPY-Ant-NLM-DR (peptide)
peptide: Ac-C(BODIPYFLEthylmaleimide)RQIKIWFQNRRMKWKKLKAQADIYKARFQAERHAREK-NH2
SMILES: CC[C@H](C)[C@H](NC(=O)[C@H](CC(=O)O)NC(=O)[C@H](C)NC(=O)[C@H](CCC(N)=O)NC(=O)[C@H](C)NC(=O)[C@H](CCCCN)NC(=O)[C@H](CC(C)C)NC(=O)[C@H](CCCCN)NC(=O)[C@H](CCCCN)NC(=O)[C@H](Cc1c[nH]c2ccccc12)NC(=O)[C@H](CCCCN)NC(=O)[C@H](CCSC)NC(=O)[C@H](CCCNC(=N)N)NC(=O)[C@H](CCCNC(=N)N)NC(=O)[C@H](CC(N)=O)NC(=O)[C@H](CCC(N)=O)NC(=O)[C@H](Cc1ccccc1)NC(=O)[C@H](Cc1c[nH]c2ccccc12)NC(=O)[C@@H](NC(=O)[C@H](CCCCN)NC(=O)[C@@H](NC(=O)[C@H](CCC(N)=O)NC(=O)[C@H](CCCNC(=N)N)NC(=O)[C@H](CSC1CC(=O)N(CCNC(=O)CCC2=[N+]3C(=Cc4c(C)cc(C)n4[B-]3(F)F)C=C2)C1=O)NC(C)=O)[C@@H](C)CC)[C@@H](C)CC)C(=O)N[C@@H](Cc1ccc(O)cc1)C(=O)N[C@@H](CCCCN)C(=O)N[C@@H](C)C(=O)N[C@@H](CCCNC(=N)N)C(=O)N[C@@H](Cc1ccccc1)C(=O)N[C@@H](CCC(N)=O)C(=O)N[C@@H](C)C(=O)N[C@@H](CCC(=O)O)C(=O)N[C@@H](CCCNC(=N)N)C(=O)N[C@@H](Cc1c[nH]cn1)C(=O)N[C@@H](C)C(=O)N[C@@H](CCCNC(=N)N)C(=O)N[C@@H](CCC(=O)O)C(=O)N[C@@H](CCCCN)C(N)=O
B3: BODIPY-TAT-NLM-DR (peptide)
peptide: Ac-C(BODIPYFLEthylmaleimide)YGRKKRRQRRRLKAQADIYKARFQAERHAREK-NH2
SMILES: CC[C@H](C)[C@H](NC(=O)[C@H](CC(=O)O)NC(=O)[C@H](C)NC(=O)[C@H](CCC(N)=O)NC(=O)[C@H](C)NC(=O)[C@H](CCCCN)NC(=O)[C@H](CC(C)C)NC(=O)[C@H](CCCNC(=N)N)NC(=O)[C@H](CCCNC(=N)N)NC(=O)[C@H](CCCNC(=N)N)NC(=O)[C@H](CCC(N)=O)NC(=O)[C@H](CCCNC(=N)N)NC(=O)[C@H](CCCNC(=N)N)NC(=O)[C@H](CCCCN)NC(=O)[C@H](CCCCN)NC(=O)[C@H](CCCNC(=N)N)NC(=O)CNC(=O)[C@H](Cc1ccc(O)cc1)NC(=O)[C@H](CSC1CC(=O)N(CCNC(=O)CCC2=[N+]3C(=Cc4c(C)cc(C)n4[B-]3(F)F)C=C2)C1=O)NC(C)=O)C(=O)N[C@@H](Cc1ccc(O)cc1)C(=O)N[C@@H](CCCCN)C(=O)N[C@@H](C)C(=O)N[C@@H](CCCNC(=N)N)C(=O)N[C@@H](Cc1ccccc1)C(=O)N[C@@H](CCC(N)=O)C(=O)N[C@@H](C)C(=O)N[C@@H](CCC(=O)O)C(=O)N[C@@H](CCCNC(=N)N)C(=O)N[C@@H](Cc1c[nH]cn1)C(=O)N[C@@H](C)C(=O)N[C@@H](CCCNC(=N)N)C(=O)N[C@@H](CCC(=O)O)C(=O)N[C@@H](CCCCN)C(N)=O
B4: BODIPY-R9-NLM-DR (peptide)
peptide: Ac-C(BODIPYFLEthylmaleimide)RRRRRRRRRLKAQADIYKARFQAERHAREK-NH2
modifications: not fully specified
B5: BODIPY-R7-NLM-DR (peptide)
peptide: Ac-C(BODIPYFLEthylmaleimide)RRRRRRRLKAQADIYKARFQAERHAREK-NH2
SMILES: CC[C@H](C)[C@H](NC(=O)[C@H](CC(=O)O)NC(=O)[C@H](C)NC(=O)[C@H](CCC(N)=O)NC(=O)[C@H](C)NC(=O)[C@H](CCCCN)NC(=O)[C@H](CC(C)C)NC(=O)[C@H](CCCNC(=N)N)NC(=O)[C@H](CCCNC(=N)N)NC(=O)[C@H](CCCNC(=N)N)NC(=O)[C@H](CCCNC(=N)N)NC(=O)[C@H](CCCNC(=N)N)NC(=O)[C@H](CCCNC(=N)N)NC(=O)[C@H](CCCNC(=N)N)NC(=O)[C@H](CSC1CC(=O)N(CCNC(=O)CCC2=[N+]3C(=Cc4c(C)cc(C)n4[B-]3(F)F)C=C2)C1=O)NC(C)=O)C(=O)N[C@@H](Cc1ccc(O)cc1)C(=O)N[C@@H](CCCCN)C(=O)N[C@@H](C)C(=O)N[C@@H](CCCNC(=N)N)C(=O)N[C@@H](Cc1ccccc1)C(=O)N[C@@H](CCC(N)=O)C(=O)N[C@@H](C)C(=O)N[C@@H](CCC(=O)O)C(=O)N[C@@H](CCCNC(=N)N)C(=O)N[C@@H](Cc1c[nH]cn1)C(=O)N[C@@H](C)C(=O)N[C@@H](CCCNC(=N)N)C(=O)N[C@@H](CCC(=O)O)C(=O)N[C@@H](CCCCN)C(N)=O
B6: CC2 (WT) (peptide)
peptide: Ac-SKGMQLEDLRQQLQQAEEALVAKQELIDKLKEEAEQHKIV-NH2
notes: Synthetic peptide; Forms a trimer by gel filtration at 10 uM; also called CC2 peptide; CC2 wild type

Tests used:
[1] = target: T1, NEMO (NF-kB essential modulator), murine; assay: cell-based or functional assay
[2] = target: T1, NEMO (NF-kB essential modulator), murine; assay: cell-based or functional assay
CC2 (WT) = target: B6; assay: fluorescence anisotropy, fixed BODIPY-Ant-LZ (0.1 µM) with CC2
Protocol: (A) Direct titration of BODIPY-Ant-CC2 (1 μM) with CC2 by fluorescence anitropy. The concentration of CC2 was determined by amino acid analysis. Anisotropy values of BODIPY-Ant-CC2 in milliunits (mA) were plotted against an increasing concentration of the CC2 peptide. […] The two dashed lines represent a stoichiometric titration and intersect at an CC2 concentration of 16 μM. Given the 1 μM concentration of the BODIPY-Ant-CC2, this gives a complex stoechiometrie of 0.8. (B) Direct titration of BODIPY-Ant-LZ (0.1 μM with CC2 by fluorescence anitropy. The anisotropy values of the BODIPY-Ant-LZ alone (white bar) or in the presence of the CC2 peptide (30 μM, grey bar; 100 μM, black bar) are given in milliunits (mA).
Anisotropy measurements were performed with a PTI Quantamaster fluorometer equipped with polarizers for the excitation and emission beams. This instrument uses a PMT in the L-configuration. […] Steady-state fluorescence anisotropy was expressed as millianisotropy (mA) and was calculated according to the equations: (1) A=(I_VV-GIVH)/(IVV+2GIVH); (2) G=IHV/IHH.; where A is anisotropy, G is a correction factor for wavelength-dependent distortion and I is the fluorescence intensity component (subscript referring to the vertical and horizontal positioning at the excitation and emission polarizers, respectively). […]

[3] = target: T1, NEMO (NF-kB essential modulator), murine; assay: cell-based or functional assay
[4] = target: the molecule itself; assay: gel filtration (Superdex 75) at 10 µM, self-association
Protocol: The oligomeric states of peptides were determined by filtration as described in Traincard et al., 2003. In brief, 500 μl samples were loaded on a Superdex 75 HR 10/30 column equilibrated in 50 mM Tris-HCl pH 8.0 containing 200 mM NaCl and 0.1 mM DDM, at a constant flow rate of 0.4 ml/min. The presence of the DDM detergent was added in the equilibrium buffer to minimize the adsorption in the column and to increase the peptide recovery. The column was calibrated in the same equilibrium buffer with blue dextran 2000 (void volume), dithioerythritol (total volume), bovine serum albumin (67 kDa, Rs=35.2 Å), ovalbumine (43 kDa, Rs=27.5 Å), chymotrypsinogen A (25 kDa, Rs=21.1 Å), ribonuclease A (13.7 kDa, Rs=16.4 Å), cytochrome C (12.4 kDa, Rs=17.7 Å) and aprotinin (6.5 KDa, Rs=13.5 Å).
The antennapedia sequence is a protein transduction domain (PTD) which adopts an alpha-helical amphiphatic structure (Prochiantz, 2000, Curr. Opin. Cell Biol.). […] To examine the effect of N-fusion of the antennapedia peptide on the oligomerization properties of the CC2 and the LZ peptides, the present inventors analyzed peptides containing or not containing the antennapedia sequence at their N-terminus by gel filtration. […]

BODIPY-Ant-CC2 (WT) (peptide)
IC50 of inhibition of LPS-induced NF-κB activation (β-galactosidase reporter, 70Z3-C3 cells) [1]: 22000 nM
fold reduction of LPS-induced NF-κB activation at 10 µM (stringent β-galactosidase assay) [1]: 1.7 fold
reduction of NF-κB activity at 20 µM after LPS stimulation of B lymphocytes [1]: 70%

B1
IC50 of inhibition of LPS-induced NF-κB activation (β-galactosidase reporter, 70Z3-C3 cells) [2]: 3000 nM
fold reduction of LPS-induced NF-κB activation at 10 µM (stringent β-galactosidase assay) [2]: 5.8 fold
binding result (CC2 (WT)): binds

B2
IC 50 (inhibition of NF-κB activation pathway) [3]: 1100 nM

B3
IC 50 (inhibition of NF-κB activation pathway) [3]: 1000 nM

B4
IC 50 (inhibition of NF-κB activation pathway) [3]: 900 nM

B5
IC 50 (inhibition of NF-κB activation pathway) [3]: 900 nM

B6
binding result [4]: binds
